According to publication PMC2918618, “Characterization of the TnsD-attTn7 complex that promotes site-specific insertion of Tn7” (Mobile DNA, 2010):

What was measured:
Experiment in all cases: EMSA; Gel-shift buffer not given (as described in ref. 6); TnsD stored in 500 mM KCl, 50 mM Tris-HCl pH 8.0, 1 mM EDTA, 2 mM DTT, 25% glycerol
[1] = target: T1, TnsD wt (Escherichia coli (transposon Tn7), UniProt P13991 1-508); details: protein: recombinant; tags: intein-chitin tag, cleaved with DTT
T1 sequence: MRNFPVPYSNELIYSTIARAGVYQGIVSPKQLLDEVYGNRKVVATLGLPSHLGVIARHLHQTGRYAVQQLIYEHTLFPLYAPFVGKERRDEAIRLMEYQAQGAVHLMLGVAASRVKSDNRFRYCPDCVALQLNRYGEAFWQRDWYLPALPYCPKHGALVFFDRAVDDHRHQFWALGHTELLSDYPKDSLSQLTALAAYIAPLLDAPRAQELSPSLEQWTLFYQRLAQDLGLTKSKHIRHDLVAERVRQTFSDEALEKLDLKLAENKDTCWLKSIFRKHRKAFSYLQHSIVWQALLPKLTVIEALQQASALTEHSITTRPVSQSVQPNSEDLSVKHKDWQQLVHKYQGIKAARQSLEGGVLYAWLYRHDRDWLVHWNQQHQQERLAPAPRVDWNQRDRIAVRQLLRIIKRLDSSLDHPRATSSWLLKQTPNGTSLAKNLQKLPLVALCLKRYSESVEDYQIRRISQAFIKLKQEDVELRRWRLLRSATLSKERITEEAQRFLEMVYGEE

[2] = target: T2, TnsD 1-498 (Escherichia coli (transposon Tn7), UniProt P13991 1-498); details: protein: recombinant
T2 sequence: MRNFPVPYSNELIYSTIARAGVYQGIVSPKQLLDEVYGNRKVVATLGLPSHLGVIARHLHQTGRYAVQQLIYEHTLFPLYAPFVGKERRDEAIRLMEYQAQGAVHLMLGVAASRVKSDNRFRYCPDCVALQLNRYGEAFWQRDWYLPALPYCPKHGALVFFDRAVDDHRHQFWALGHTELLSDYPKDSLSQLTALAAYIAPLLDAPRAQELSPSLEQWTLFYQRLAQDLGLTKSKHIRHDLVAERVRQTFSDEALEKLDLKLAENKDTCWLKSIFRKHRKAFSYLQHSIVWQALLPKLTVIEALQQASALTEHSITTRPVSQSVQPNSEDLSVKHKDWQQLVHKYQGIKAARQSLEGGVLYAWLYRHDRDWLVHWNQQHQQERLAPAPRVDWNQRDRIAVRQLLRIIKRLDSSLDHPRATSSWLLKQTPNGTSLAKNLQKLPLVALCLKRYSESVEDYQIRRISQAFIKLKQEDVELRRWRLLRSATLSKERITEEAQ

[3] = target: T3, TnsD 1-490 (Escherichia coli (transposon Tn7), UniProt P13991 1-490); details: protein: recombinant
T3 sequence: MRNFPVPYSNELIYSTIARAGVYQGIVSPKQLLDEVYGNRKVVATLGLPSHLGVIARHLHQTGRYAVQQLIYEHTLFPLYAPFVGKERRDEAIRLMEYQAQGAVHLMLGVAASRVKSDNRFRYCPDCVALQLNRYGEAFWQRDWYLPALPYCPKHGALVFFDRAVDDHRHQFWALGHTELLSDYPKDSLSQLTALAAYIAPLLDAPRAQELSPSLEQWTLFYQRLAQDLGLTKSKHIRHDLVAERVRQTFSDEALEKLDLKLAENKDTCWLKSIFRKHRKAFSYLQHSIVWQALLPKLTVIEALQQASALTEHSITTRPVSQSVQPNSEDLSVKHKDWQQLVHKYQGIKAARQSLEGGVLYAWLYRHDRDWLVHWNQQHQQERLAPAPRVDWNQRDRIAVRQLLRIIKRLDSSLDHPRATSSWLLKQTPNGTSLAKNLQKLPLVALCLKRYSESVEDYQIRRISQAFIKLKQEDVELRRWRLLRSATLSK

[4] = target: T4, TnsD 1-399 (Escherichia coli (transposon Tn7), UniProt P13991 1-399); details: protein: recombinant
T4 sequence: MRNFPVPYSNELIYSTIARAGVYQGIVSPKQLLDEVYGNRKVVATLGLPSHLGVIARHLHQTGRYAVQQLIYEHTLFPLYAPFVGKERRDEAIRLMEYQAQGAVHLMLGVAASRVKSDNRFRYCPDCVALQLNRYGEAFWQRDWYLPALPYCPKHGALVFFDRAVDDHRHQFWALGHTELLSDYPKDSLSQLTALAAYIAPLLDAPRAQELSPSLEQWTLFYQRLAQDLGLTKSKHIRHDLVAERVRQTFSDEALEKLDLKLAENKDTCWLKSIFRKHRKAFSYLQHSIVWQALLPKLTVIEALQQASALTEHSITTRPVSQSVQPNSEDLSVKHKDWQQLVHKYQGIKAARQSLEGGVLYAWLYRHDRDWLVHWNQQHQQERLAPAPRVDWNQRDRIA

[5] = target: T5, TnsD 1-480 (Escherichia coli (transposon Tn7), UniProt P13991 1-480); details: protein: recombinant
T5 sequence: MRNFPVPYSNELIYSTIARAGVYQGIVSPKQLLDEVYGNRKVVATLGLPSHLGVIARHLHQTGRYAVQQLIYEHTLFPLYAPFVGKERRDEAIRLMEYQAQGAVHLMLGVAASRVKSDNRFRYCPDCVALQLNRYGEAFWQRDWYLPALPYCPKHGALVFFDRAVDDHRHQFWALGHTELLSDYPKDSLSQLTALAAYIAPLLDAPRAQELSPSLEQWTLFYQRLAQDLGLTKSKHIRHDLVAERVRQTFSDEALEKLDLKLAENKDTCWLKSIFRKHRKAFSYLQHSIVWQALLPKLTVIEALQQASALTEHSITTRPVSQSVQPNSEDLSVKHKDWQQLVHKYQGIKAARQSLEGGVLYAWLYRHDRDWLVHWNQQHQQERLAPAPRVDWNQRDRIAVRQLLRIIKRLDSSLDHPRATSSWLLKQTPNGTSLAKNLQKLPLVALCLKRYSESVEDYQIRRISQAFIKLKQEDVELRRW

B1: attTn7 wt (+23 to +58) (dsDNA)
DNA 1: CCGCGTAACCTGGCAAAATCGGTTACGGTTGAGTAA
DNA 2: TTACTCAACCGTAACCGATTTTGCCAGGTTACGCGG
binding signal [1]: 1 relative to wt | binding result [2]: no binding | binding result [3]: no binding | binding result [4]: no binding | binding result [5]: no binding
